# Assay results taken from patent US10941182 (Amgen, dated 2021).
# Starred links: 1 amine or outer side, 2 acyl side, 3 side chain; linkers in the order of their positions; H or OH if unused. Non-standard residues stand in square brackets, D forms with d. *: point of attachment. dBip = N[C@H](Cc1ccc(-c2ccccc2)cc1)C(=O)O; Oic = O=C(O)[C@@H]1C[C@@H]2CCCC[C@@H]2N1; dPhe(4-Cl) = N[C@H](Cc1ccc(Cl)cc1)C(=O)O; Phe(4-I) = N[C@@H](Cc1ccc(I)cc1)C(=O)O; γGlu = O=C(O)[C@H](CCC(=O)[*:2])N[*:1]; d1Nal = N[C@H](Cc1cccc2ccccc12)C(=O)O; NMeR = CN[C@@H](CCCNC(=N)N)C(=O)O; Tridecanoyl = CCCCCCCCCCCCC(=O)*; hArg = N=C(N)NCCCC[C@H](N)C(=O)O; Cha = N[C@@H](CC1CCCCC1)C(=O)O; NMeL = CN[C@@H](CC(C)C)C(=O)O; Nle = CCCC[C@H](N)C(=O)O; AEEA = NCCOCCOCC(=O)O; BLeu = β-leucine
# T1: human APJ receptor (human, UniProt P35414 1-380)
# T1 sequence (looked up): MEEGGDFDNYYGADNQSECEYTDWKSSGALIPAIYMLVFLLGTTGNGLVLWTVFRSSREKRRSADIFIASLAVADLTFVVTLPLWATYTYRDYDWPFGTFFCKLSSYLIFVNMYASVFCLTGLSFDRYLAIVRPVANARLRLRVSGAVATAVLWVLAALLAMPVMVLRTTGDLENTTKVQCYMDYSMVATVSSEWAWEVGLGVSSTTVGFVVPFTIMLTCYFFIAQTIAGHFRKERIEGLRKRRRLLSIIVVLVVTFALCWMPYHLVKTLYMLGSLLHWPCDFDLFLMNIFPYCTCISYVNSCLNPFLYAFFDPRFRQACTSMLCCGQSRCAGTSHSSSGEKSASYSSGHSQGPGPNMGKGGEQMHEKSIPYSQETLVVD
# T2: rat APJ receptor (rat, UniProt Q9JHG3 1-377)
# T2 sequence (looked up): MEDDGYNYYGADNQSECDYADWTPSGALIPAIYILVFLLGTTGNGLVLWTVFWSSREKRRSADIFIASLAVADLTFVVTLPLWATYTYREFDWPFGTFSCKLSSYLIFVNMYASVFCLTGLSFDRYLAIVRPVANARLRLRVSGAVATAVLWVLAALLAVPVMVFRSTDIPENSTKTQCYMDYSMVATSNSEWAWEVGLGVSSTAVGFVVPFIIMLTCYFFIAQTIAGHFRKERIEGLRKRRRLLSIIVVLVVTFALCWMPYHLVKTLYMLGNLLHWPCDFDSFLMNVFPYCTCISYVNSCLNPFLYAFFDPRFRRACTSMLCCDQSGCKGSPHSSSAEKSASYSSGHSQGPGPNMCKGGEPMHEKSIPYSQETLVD
# B1: apelin polypeptide SEQ ID NO: 175 (peptide)
# peptide: Tridecanoyl-[γGlu][AEEA][AEEA][hArg]Q[dR]P[dR][NMeL]SHKG[Oic][Phe(4-I)][dBip]-OH
# SMILES: CCCCCCCCCCCCC(=O)N[C@@H](CCC(=O)NCCOCCOCC(=O)NCCOCCOCC(=O)N[C@@H](CCCCNC(=N)N)C(=O)N[C@@H](CCC(N)=O)C(=O)N[C@H](CCCNC(=N)N)C(=O)N1CCC[C@H]1C(=O)N[C@H](CCCNC(=N)N)C(=O)N(C)[C@@H](CC(C)C)C(=O)N[C@@H](CO)C(=O)N[C@@H](Cc1c[nH]cn1)C(=O)N[C@@H](CCCCN)C(=O)NCC(=O)N1[C@H](C(=O)N[C@@H](Cc2ccc(I)cc2)C(=O)N[C@H](Cc2ccc(-c3ccccc3)cc2)C(=O)O)C[C@@H]2CCCC[C@@H]21)C(=O)O
# B2: apelin polypeptide SEQ ID NO: 149 (peptide)
# peptide: Tridecanoyl-[γGlu][AEEA][AEEA][hArg][dQ][hArg]P[NMeR][Cha]SHKG[Oic][Nle]P[dF]-OH
# SMILES: CCCCCCCCCCCCC(=O)N[C@@H](CCC(=O)NCCOCCOCC(=O)NCCOCCOCC(=O)N[C@@H](CCCCNC(=N)N)C(=O)N[C@H](CCC(N)=O)C(=O)N[C@@H](CCCCNC(=N)N)C(=O)N1CCC[C@H]1C(=O)N(C)[C@@H](CCCNC(=N)N)C(=O)N[C@@H](CC1CCCCC1)C(=O)N[C@@H](CO)C(=O)N[C@@H](Cc1c[nH]cn1)C(=O)N[C@@H](CCCCN)C(=O)NCC(=O)N1[C@H](C(=O)N[C@@H](CCCC)C(=O)N2CCC[C@H]2C(=O)N[C@H](Cc2ccccc2)C(=O)O)C[C@@H]2CCCC[C@@H]21)C(=O)O
# B3: apelin polypeptide SEQ ID NO: 16 (peptide)
# peptide: Ac-[hArg][dR]Q[hArg]P[dR][NMeL]SHKG[Oic][Phe(4-I)]P[dBip]-OH
# SMILES: CC(=O)N[C@@H](CCCCNC(=N)N)C(=O)N[C@H](CCCNC(=N)N)C(=O)N[C@@H](CCC(N)=O)C(=O)N[C@@H](CCCCNC(=N)N)C(=O)N1CCC[C@H]1C(=O)N[C@H](CCCNC(=N)N)C(=O)N(C)[C@@H](CC(C)C)C(=O)N[C@@H](CO)C(=O)N[C@@H](Cc1c[nH]cn1)C(=O)N[C@@H](CCCCN)C(=O)NCC(=O)N1[C@H](C(=O)N[C@@H](Cc2ccc(I)cc2)C(=O)N2CCC[C@H]2C(=O)N[C@H](Cc2ccc(-c3ccccc3)cc2)C(=O)O)C[C@@H]2CCCC[C@@H]21
# B4: apelin polypeptide SEQ ID NO: 155 (peptide)
# peptide: Tridecanoyl-[γGlu][AEEA][AEEA][dR]Q[hArg]P[dR][NMeL]SHKG[Oic][Phe(4-I)]P[d1Nal]-OH
# SMILES: CCCCCCCCCCCCC(=O)N[C@@H](CCC(=O)NCCOCCOCC(=O)NCCOCCOCC(=O)N[C@H](CCCNC(=N)N)C(=O)N[C@@H](CCC(N)=O)C(=O)N[C@@H](CCCCNC(=N)N)C(=O)N1CCC[C@H]1C(=O)N[C@H](CCCNC(=N)N)C(=O)N(C)[C@@H](CC(C)C)C(=O)N[C@@H](CO)C(=O)N[C@@H](Cc1c[nH]cn1)C(=O)N[C@@H](CCCCN)C(=O)NCC(=O)N1[C@H](C(=O)N[C@@H](Cc2ccc(I)cc2)C(=O)N2CCC[C@H]2C(=O)N[C@H](Cc2cccc3ccccc23)C(=O)O)C[C@@H]2CCCC[C@@H]21)C(=O)O
# B5: apelin polypeptide SEQ ID NO: 153 (peptide)
# peptide: Tridecanoyl-[γGlu][AEEA][AEEA][dR]Q[hArg]P[dR][NMeL]SHKG[Oic][Phe(4-I)]P[Oic]-OH
# SMILES: CCCCCCCCCCCCC(=O)N[C@@H](CCC(=O)NCCOCCOCC(=O)NCCOCCOCC(=O)N[C@H](CCCNC(=N)N)C(=O)N[C@@H](CCC(N)=O)C(=O)N[C@@H](CCCCNC(=N)N)C(=O)N1CCC[C@H]1C(=O)N[C@H](CCCNC(=N)N)C(=O)N(C)[C@@H](CC(C)C)C(=O)N[C@@H](CO)C(=O)N[C@@H](Cc1c[nH]cn1)C(=O)N[C@@H](CCCCN)C(=O)NCC(=O)N1[C@H](C(=O)N[C@@H](Cc2ccc(I)cc2)C(=O)N2CCC[C@H]2C(=O)N2[C@H](C(=O)O)C[C@@H]3CCCC[C@@H]32)C[C@@H]2CCCC[C@@H]21)C(=O)O
# B6: apelin polypeptide SEQ ID NO: 173 (peptide)
# peptide: Tridecanoyl-[γGlu][AEEA][AEEA][dR]Q[hArg]P[dR][NMeL]SHKG[Oic][Phe(4-I)][dBip]-OH
# SMILES: CCCCCCCCCCCCC(=O)N[C@@H](CCC(=O)NCCOCCOCC(=O)NCCOCCOCC(=O)N[C@H](CCCNC(=N)N)C(=O)N[C@@H](CCC(N)=O)C(=O)N[C@@H](CCCCNC(=N)N)C(=O)N1CCC[C@H]1C(=O)N[C@H](CCCNC(=N)N)C(=O)N(C)[C@@H](CC(C)C)C(=O)N[C@@H](CO)C(=O)N[C@@H](Cc1c[nH]cn1)C(=O)N[C@@H](CCCCN)C(=O)NCC(=O)N1[C@H](C(=O)N[C@@H](Cc2ccc(I)cc2)C(=O)N[C@H](Cc2ccc(-c3ccccc3)cc2)C(=O)O)C[C@@H]2CCCC[C@@H]21)C(=O)O
# B7: apelin polypeptide SEQ ID NO: 126 (peptide)
# peptide: Tridecanoyl-[γGlu][AEEA][AEEA][dQ][hArg]P[NMeR][Cha]SHKG[Oic][Nle]P[dF]-OH
# SMILES: CCCCCCCCCCCCC(=O)N[C@@H](CCC(=O)NCCOCCOCC(=O)NCCOCCOCC(=O)N[C@H](CCC(N)=O)C(=O)N[C@@H](CCCCNC(=N)N)C(=O)N1CCC[C@H]1C(=O)N(C)[C@@H](CCCNC(=N)N)C(=O)N[C@@H](CC1CCCCC1)C(=O)N[C@@H](CO)C(=O)N[C@@H](Cc1c[nH]cn1)C(=O)N[C@@H](CCCCN)C(=O)NCC(=O)N1[C@H](C(=O)N[C@@H](CCCC)C(=O)N2CCC[C@H]2C(=O)N[C@H](Cc2ccccc2)C(=O)O)C[C@@H]2CCCC[C@@H]21)C(=O)O
# B8: apelin polypeptide SEQ ID NO: 154 (peptide)
# peptide: Tridecanoyl-[γGlu][AEEA][AEEA][dR]Q[hArg]P[dR][NMeL]SHKG[Oic][Phe(4-I)]P[dPhe(4-Cl)]-OH
# SMILES: CCCCCCCCCCCCC(=O)N[C@@H](CCC(=O)NCCOCCOCC(=O)NCCOCCOCC(=O)N[C@H](CCCNC(=N)N)C(=O)N[C@@H](CCC(N)=O)C(=O)N[C@@H](CCCCNC(=N)N)C(=O)N1CCC[C@H]1C(=O)N[C@H](CCCNC(=N)N)C(=O)N(C)[C@@H](CC(C)C)C(=O)N[C@@H](CO)C(=O)N[C@@H](Cc1c[nH]cn1)C(=O)N[C@@H](CCCCN)C(=O)NCC(=O)N1[C@H](C(=O)N[C@@H](Cc2ccc(I)cc2)C(=O)N2CCC[C@H]2C(=O)N[C@H](Cc2ccc(Cl)cc2)C(=O)O)C[C@@H]2CCCC[C@@H]21)C(=O)O
# B9: apelin polypeptide SEQ ID NO: 174 (peptide)
# peptide: Tridecanoyl-[γGlu][AEEA][AEEA][hArg][dQ][hArg]P[dR][NMeL]SHKG[Oic][Phe(4-I)][dBip]-OH
# SMILES: CCCCCCCCCCCCC(=O)N[C@@H](CCC(=O)NCCOCCOCC(=O)NCCOCCOCC(=O)N[C@@H](CCCCNC(=N)N)C(=O)N[C@H](CCC(N)=O)C(=O)N[C@@H](CCCCNC(=N)N)C(=O)N1CCC[C@H]1C(=O)N[C@H](CCCNC(=N)N)C(=O)N(C)[C@@H](CC(C)C)C(=O)N[C@@H](CO)C(=O)N[C@@H](Cc1c[nH]cn1)C(=O)N[C@@H](CCCCN)C(=O)NCC(=O)N1[C@H](C(=O)N[C@@H](Cc2ccc(I)cc2)C(=O)N[C@H](Cc2ccc(-c3ccccc3)cc2)C(=O)O)C[C@@H]2CCCC[C@@H]21)C(=O)O
# B10: apelin polypeptide SEQ ID NO: 199 (peptide)
# peptide: Tridecanoyl-[γGlu][AEEA][AEEA][hArg][dQ][hArg]P[dR][NMeL]SAKG[Oic][Phe(4-I)]P[dBip]-OH
# SMILES: CCCCCCCCCCCCC(=O)N[C@@H](CCC(=O)NCCOCCOCC(=O)NCCOCCOCC(=O)N[C@@H](CCCCNC(=N)N)C(=O)N[C@H](CCC(N)=O)C(=O)N[C@@H](CCCCNC(=N)N)C(=O)N1CCC[C@H]1C(=O)N[C@H](CCCNC(=N)N)C(=O)N(C)[C@@H](CC(C)C)C(=O)N[C@@H](CO)C(=O)N[C@@H](C)C(=O)N[C@@H](CCCCN)C(=O)NCC(=O)N1[C@H](C(=O)N[C@@H](Cc2ccc(I)cc2)C(=O)N2CCC[C@H]2C(=O)N[C@H](Cc2ccc(-c3ccccc3)cc2)C(=O)O)C[C@@H]2CCCC[C@@H]21)C(=O)O
# Molecular target: T1, human APJ receptor
# Experiment: cell-based or functional assay
row,Binder,EC50 Human APJ Receptor [nM]
1,B1,1.32
2,B2,3.19
3,B3,0.375
4,B4,8.62
5,B5,3.75
6,B6,1.66
7,Tridecanoyl-[γGlu][AEEA][AEEA][hArg][dQ][hArg]P[dR][BLeu]SHKG[Oic][Phe(4-I)]P[dBip]-OH [apelin polypeptide SEQ ID NO: 180],10
8,B7,11
9,B8,4.54
10,B9,3.6
11,B10,8.48

# Molecular target: T2, rat APJ receptor
# Experiment: cell-based or functional assay
row,Binder,EC50 Rat APJ Receptor [nM]
1,B1,8.54
2,B2,9.99
3,B3,0.729
4,B4,49.6
5,B5,72
6,B6,13.7
7,Tridecanoyl-[γGlu][AEEA][AEEA][hArg][dQ][hArg]P[dR][BLeu]SHKG[Oic][Phe(4-I)]P[dBip]-OH [apelin polypeptide SEQ ID NO: 180],27.3
8,B7,56.2
9,B8,40.5
10,B9,16.5
11,B10,32.4
